This series is described as follows: soluble on expression in E. coli; label from the status in PepcDB or PDB records.
Regarding “MGSDKIHHHHHHMGIRAGESGNSLSKALLEIEKEQPAPCYLLYGDAEYEISDAFTKIIDALLSPEDQALNLFVLDGEDEDPERIGENLMTPPLLPGRKVVAVRRTQLFSSRKTLKDLVKRIREQLNGKPQQAAKTFMTFLSLAGWNLEDFKGDGWKAISDKDWQTTVEGDAGEDRIKWLPQVVEVCVDLGLKGRSATGGGTDHLEAILRDGLPAGNVLLLTAESVDKRKKLFKTISELGRVLPFVVEKGEARQKNTLMDSARDLLATRGKRMSSGAWEVLGRKTGFQLRNSMAALEKLITYTGERKTIEVSDVEEVISRTREDKVFDLTAALAEKNLKGALSVLRSLREQGIHSLVILSMIVREMRLLLHARQLRNEGALPGYQPRMDYGRFQKSIYPTVKGWAGQAGDVHIELADSHPYVVFNILRNSENFSEKRLKRHLEDLLAMDLAMKSTAKDADLMLERFLIDVCRP”, the “soluble on expression in E. coli” value is listed as “not soluble”. The same measure for “MAEGVNEPCFPGDCGIFVTKVDKGSIADGRLRVNDWLLRINDVDLINKDKKQAIKALLNGEGAINMVVRRRKSLGGKVVTPLHINLSGQKDSGISLENGVYAAAVLPGSPAAKEGSLAVGDRIVAINGIALDNKSLNECESLLRSCQDSLTLSLLKVFPQSSSWSGQNIFENIKDSDKMLSFRAHGPEVQAHNKRNLIQHNNSTQTDIFYTDRLEDRKEPGPPGGSSSFLHKPFPGGPLQVCPQACPSASERSLSSFRSDASGDRGFGLVDVRGRRPLLPFETEVGPCGVGEASLDKADSEGSNSGGTWPKAMLSSTAVPEKLSVYKKPKQRKSIFDPNTFKRPQTPPKIDYLLPGPGPAHSPQPSKRAGPLTPPKPPRRSDSIKFQHRLETSSESEATLVGSSPSTSPPSALPPDVDPGEPMHASPPRKARVRIASSYYPEGDGDSSHLPAKKSCDEDLTSQKVDELGQKRRRPKSAPSFRPKLAPVVIPAQFLEEQKCVPASGELSPELQEWAPYSPGHSSRHSNPPLYPSRPSVGTVPRSLTPSTTVSSILRNPIYTVRSHRVGPCSSPPAARDAGPQGLHPSVQHQGRLSLDLSHRTCSDYSEMRATHGSNSLPSSARLGSSSNLQFKAERIKIPSTPRYPRSVVGSERGSVSHSECSTPPQSPLNIDTLSSCSQSQTSASTLPRIAVNPASLGERRKDRPYVEEPRHVKVQKGSEPLGISIVSGEKGGIYVSKVTVGSIAHQAGLEYGDQLLEFNGINLRSATEQQARLIIGQQCDTITILAQYNPHVHQLSSHSRSSSHLDPAGTHSTLQGSGTTTPEHPSVIDPLMEQDEGPSTPPAKQSSSRIAGDANKKTLEPRVVFIKKSQLELGVHLCGGNLHGVFVAEVEDDSPAKGPDGLVPGDLILEYGSLDVRNKTVEEVYVEMLKPRDGVRLKVQYRPEEFTKAKGLPGDSFYIRALYDRLADVEQELSFKKDDILYVDDTLPQGTFGSWMAWQLDENAQKIQRGQIPSKYVMDQEFSRRLSMSEVKDDNSATKTLSAAARRSFFRRKHKHKRSGSKDGKDLLALDAFSSDSIPLFEDSVSLAYQRVQKVDCTALRPVLILGPLLDVVKEMLVNEAPGKFCRCPLEVMKASQQAIERGVKDCLFVDYKRRSGHFDVTTVASIKEITEKNRHCLLDIAPHAIERLHHMHIYPIVIFIHYKSAKHIKEQRDPIYLRDKVTQRHSKEQFEAAQKLEQEYSRYFTGVIQGGALSSICTQILAMVNQEQNKVLWIPACPL”: “soluble”. Turning to “AIALVEDSGHHLPESADIENALDLLLKAQLERAFGPELAEHFWAARQPRTLDERLAFIRKCWIGVFKDSPLSTFGLERLEQLERLCRSKRRGRELSAAEHHQFAEELARLWEQVQRLLPRAAPETSYASSASAGGVHSGDAHTPATLSDAESAHAAPEAMRIEAPATSARSASGCMARVSSDVAAAATNVSLVVLDGENIAWAHGQNAVFSPKGIAIAVDFFRKRGYRCVVFLPDYRRKRADLPTVSASDALVFVPAGEYDDTFALGYAVGHDAILVTNDLLQDHLDQFYPDEGEAREALRKWLGSHRCSFTFVGDEFLPNPHFFLP”, the “soluble on expression in E. coli” value is on record as “soluble”. Then “MHHIETTKLSRRAFLKKLTRTSFSAALMMAAASGYARWIEPAELTVTHHALSHPLIPKSFAGVKLLQFSDLHLGHYYGLERFYRIMGRINELGPDLVVFTGDLLHEANRYPHVDAVAEALAGVRAPLGKFCIYGNHDHGGYGTDIYRRLMERAGFRVLVNEHALVRRGHGAIAIAGSDDMMLGRPDWSKMTNGIPRATYTIALVHEPDGAIEARRFPIHVQLSGHSHGGQIQLPFIGPLITPPLSERYYEGFYHVGGLLLYVNRGLGTTRVPLRFFAPPELTVFSLAPG”, with “not soluble”; and “GMNRGKALQLVKPHLTEHRYQHTIGVMETAIDLAKLYGADQQKAELAAIFHDYAKFRDKNEMRTLIREKLSQQDILFYGDELLHAPCGAYYVREEVGIEDEDVLQAIRFHTTGRPNMSLLEKIIFLADYIEPNRQFPGVEKVRTQAKTDLNGAIISSLVNTITFLLKKNQPIYPDTLATYNQLLLEQK”, with “soluble”; and “MVTLSLPNMEGRREQLIAQVESILASAADGRVQKTKETQSVDFKEEAGRRNGPQIEPGKPENPEAADKLADEVACMANTPGGGALIVGIEDKTGRIIGTELDIDWLRQGIFTRIDVAPDVVAKRVLGQRVLAIYVAAAAEPIEDTSDRLRWRVGDSCRPVDRAEWWEYQRAQSGFDPMAQVTTATLGDARPAALALARKWDPAFAELTDEELLRGIGALDAEGFLSQAGKLLFTSLDRTAIELSIFDVHGGQVLNRVVPEPEKSCLEQLDYLEQALNVVNKNNTVVEGFVHKPVPEIPRLAVREAMLNAMIHRDWNRSEPIDVRWIELDSTLIVRSPGGFPAAITSENVLSNRAARYPALADLYRALGLVDKQGVGVDRMYQAMIALGHRPPTIEEIAGPFVETTLVGGRPVLPVLELVSSIVPEARQDDYRIAIVLYLLFQRPFITIDVVARGLQSGKEAARNALEAARQTTVAGAPLIIAHDGVWLLGNACREILRKVEPSPFSPVRYLSTDQAELTNAAMLWLSEVGDLATSDLMAMCGVSRGTAKACVDGLVDEERVVAVGGGRSRRYRLVELEHHHHHH”, with “soluble”.

With “SEESVKPVPKHANHRRSSVRSSLYGDVRDLWSTATMSTANVSVSDVCEDFDEEGKSVRNRIRKYSQTISIRDSLNLEPEEIQQQARRELELCHGRSLEHGEDHEESETSLASSTSESLIFSLWKPHRTYWTEQQNRLPLPLMELMETEVLDILKKALITYRSTIGRNHFMTKELQGYIEGIRKRRNKRLYFLDQ”, the “soluble on expression in E. coli” value is given as “soluble”.

In the case of “MTRQSLQQAAESRRSIYSLNKNLPVGKDEVVQIVEHAVLHTPSSFNSQSARVVVLFGEEHDKVWQFVEDALRAVVPADSFEPTAQKLNLFKAGAATILFYEDQNVVKGLQEQFPAYAANFPVWADQANAMVQYAVWTTLAAVGVGANLQHYNPLPDAAIAKAWNIPENWLLRAQMVIGGIEGAAGEKTFEPVAERLKVFGA”, the “soluble on expression in E. coli” value was “not soluble”. On to “MAEKMQAIMKTKPAYGAELVEVDVPKPGPGEVLIKVLATSICGTDLHIYEWNEWAQSRIKPPQIMGHEVAGEVVEVGPGVEDLQVGDYISVETHIVCGKCYACKHNRYHVCQNTKIFGVDMDGVFAHYAIVPAKNAWKNPKDMPPEYAALQEPLGNAVDTVLAGPIAGRSTLITGAGPLGLLGIAVAKASGAYPVIVSEPSEFRRKLAKKVGADYVVNPFEEDPVKFVMDITDGAGVEVFLEFSGAPKALEQGLKAVTPGGRVSLLGLFPREVTIDFNNLIIFKALEVHGITGRHLWETWYTVSSLIQSGKLNLDPIITHKYKGFDKFEEAFELMRAGKTGKVVFFPHKG”, for which the “soluble on expression in E. coli” value is recorded as “soluble”. For the sequence “MGHHHHHHSHMFGGDTLYELRCSLQLAETEREGGFSPHISPFTAVNDLGHLLGRAGFNTLTVDTDEIQVNYPGMFELMEDLQGMGESNCAWNRKALLHRDTMLAAAAVYREMYRNEDGSVPATYQIYYMIGWKYHESQARPAERGSATVSFGELGKINNLMPPGKKSQ”, the “soluble on expression in E. coli” value was “not soluble”. Turning to “MGSDKIHHHHHHMAKAKTQFVCSNCGYSTPRYLGRCPNCGEWNTLTEEHFDTKPDRKSRVSFAGKSAKPQRLKEVSLTKTPRVKTKLKEFNRVLGGGVVPGSLVLIGGDPGIGKSTLLLQVSGQLAETGGSVLYVTGEESASQVKMRADRLAVSSEDFYLYPETDMSNIRSTIESTHPEFVVIDSVQTMQEPDMDSAIGSVSQIREITAELLQIAKTNGITIFIVGHVTKGGAIAGPKILEHMVDTVLYFEGDLHHTYRILRAVKNRFGSTNELGIFEMRTGGLYEVANPSEIFLEERLKDATGSAIVVSMEGTRPILVEVQALVTPTVFGNAKRTASGLDHNRVSLIMAVLEKRASLMLQNQDAYLKAAGGVKLDEPAIDLAIAVSVASSYRDQQTRPSDCFVGEVGLTGEIRRVNRIESRVGEAAKLGFKRIFIPKNNLQGWDIPTGIEVIGVATLKEALQLALQQPNY”, the “soluble on expression in E. coli” value was “not soluble”. As for “MSLDSSRIKVVFWHEMKGPGQQAIDAYVKAFNHQQSKYEVVAEFEGGYNGVIQKILNTHGTAASPALFQSMDISTSQMYHSGFTTPMQKFIDRDHYDADQIIPGAKAIVMRDNQLLAMPFNASQTALYYNKRVLRQYGITPPPVDPTYDDITRVAKAIHDKSHGKVKGMTMEAYSWLFEQLVANAGVPVANHDNGHTGNATKVDFTSPAAINAMKWVKENIDYGDFMNFGSGGNAAANEAASFLAGHLGIFMQSSANTGQLYQVLKNDLGVTYFPRPNGQRANGIAVGGAALWIANDKPSAVQDGAWEFTKFLASAQTQADWQAKTGYLAVNKGAKDEPTLKKLFKKSPVLEVSGNQMLRTKPNNTNSGVFVDGWVPARTAIQTAMQQIFAGQDIRQSLQTAENTYNKVLESNNRANGREGHHHHHH”, the “soluble on expression in E. coli” value is “soluble”.

“MSLQRFNQRVWMMFGEFNLIDKYFSNRQAQRKDVHLALGDDCAIVKVPENSRVAISTDTLVAGTHFLAQANPAWVAHKALASNISDLAAMGATPAWVSLALTLPEIDDAWLTPFCDAFFELAKYYNVQLIGGDTTKGPLSITLTVQGFLPKEQAMLRSGAKVGDWLYVTGDLGDSQAGLDVILDPEKRHLPFADILEQRHYLSTPRIVAGQALVHLASSAIDISDGLIADLQHILRRSNVGASIDVSLLPLSKELLQFVDSVTSAQQYALTSGEEYELCFTIPEENRGSLENALAHCGTKVTCIGQIRPAGTFELHNQGKKLDWQLAGYDHFKVKAEGHHHHHH”: the “soluble on expression in E. coli” value was “soluble”. Take “MAESFTTTNRYFDNKHYPRGFSRHGDFTIKEAQLLERHGYAFNELDLGKREPVTEEEKLFVAVCRGEREPVTEAERVWSKYMTRIKRPKRFHTLSGGKPQVEGAEDYTDSDD”: the “soluble on expression in E. coli” value was “soluble”. As to “MMPGYQSADEFADKEKGWTGVHQWEKEMAKADEKYGPIFAKFAAMPIEEVAKDPQAVKMGGRLFASNCSICHGSDAKGAYGFPNLTDADWRWGGEPETIKTTIMAGRHAAMPAWGEVIGEEGVKNVAAFVLTQMDGRKLPEGAKADIEAGKQVFATTCVACHGPEGKGTPAMGAPDLTHPGAFIYGSSFAQLQQTIRYGRQGVMPAQQEHLGNDKVHLLAAYVYSLSHGE”, the “soluble on expression in E. coli” value is listed as “not soluble”. In the case of “MDPMYLLVDVGNTHSVFSITEDGKTFRRWRLSTGVFQTEDELFSHLHPLLGDAMREIKGIGVASVVPTQNTVIERFSQKYFHISPIWVKAKNGCVKWNVKNPSEVGADRVANVVAFVKEYGKNGIIIDMGTATTVDLVVNGSYEGGAILPGFFMMVHSLFRGTAKLPLVEVKPADFVVGKDTEENIRLGVVNGSVYALEGIIGRIKEVYGDLPVVLTGGQSKIVKDMIKHEIFDEDLTIKGVYHFCFGD”, the “soluble on expression in E. coli” value is on record as “soluble”.

(Values after the DeepSol protein solubility set.)
